Measured values: US20040133357A1 (ABMAXIS, published 2004)

B1: hAB15 (scFv)
scFv: EVQLVQSGGGVVQPGGSLRLSCAASGYTFTNYGMNWIRQAPGKGLEWVGWINTYTGEPTYAADFKRRVTFSLDTSKSTAYLQLNSLRAEDTAVYYCAKYPYYYGRSHWYFDVWGQGTLVTVSSGGGGSGGGGSGGGGSDIVMTQSPSTLSASPGERATITCHASQSISTYLAWYQQKPGQAPRVLIYGASNLASGVPNRFSGSGSGTDFTLTISSLQPEDFAVYYCQQYNSAPWTFGGGTKVEIK
notes: Single chain format; not shown: HA-His6 tag at C-terminus
B2: hAB14 (scFv)
scFv: EVQLVQSGGGVVQPGGSLRLSCAASGYTFTNYGMNWIRQAPGKGLEWVGWINTYTGEPTYAADFKRRVTFSLDTSKSTAYLQLNSLRAEDTAVYYCAKYPYYYGRSHWYFDVWGQGTLVTVSSGGGGSGGGGSGGGGSAIRMTQSPSSVSASVGDTVTIACRASQAIRNDLTWYQQKPGTAPKLLIYGATTLQSGVPSRFSGSGSGTDFTLTISSLQPEDFATYYCQQSSTTPWTFGQGTKVDIK
notes: as for B1
B3: hAB35 (scFv)
scFv: EVQLVQSGGGVVQPGGSLRLSCAASGYDFTHFGLNWIRQAPGKGPEWVGWINTYTGEPTYAQDFKRRVTFSLDTSKSTAYLQLNSLRAEDTAVYYCAKYPYYYGRSHWYFDVWGQGTLVTVSSGGGGSGGGGSGGGGSDIVMTQSPSTLSASPGERATITCNASQSIGSYLAWYQQKPGQAPKVLIYGASNLASGVPSRFSGSRSGTDFTLTISSLQPEDFAVYYCQQYNSTPWTFGGGTKLEIK
notes: as for B1
B4: hAB39 (scFv)
scFv: EVQLVQSGGGVVQPGGSLRLSCAASGYDFTHFGLNWVRQAPGKGLEWVGWVNTYTGETTYAHEFKRRVTFSLDTSKSTAYLQLNSLRAEDTAVYYCAKYPYYYGRSHWYFDVWGQGTLVTVSSGGGGSGGGGSGGGGSDIVMTQSPSTLSASPGERATITCNASQSIGSYLAWYQQKPGQAPKVLIYGASNLASGVPSRFSGSRSGTDFTLTISSLQPEDFAVYYCQQYNSTPWTFGGGTKLEIK
notes: as for B1
B5: hAB38 (scFv)
scFv: EVQLVQSGGGVVQPGGSLRLSCAASGYNFSHFGLNWLRQAPGKGPEWVGWINTYTGEPTYAPEFKRRVTFSLDTSKSTAYLQLNSLRAEDTAVYYCAKYPYYYGRSHWYFDVWGQGTLVTVSSGGGGSGGGGSGGGGSDIVMTQSPSTLSASPGERATITCNASQSIGSYLAWYQQKPGQAPKVLIYGASNLASGVPSRFSGSRSGTDFTLTISSLQPEDFAVYYCQQYNSTPWTFGGGTKLEIK
notes: as for B1
B6: hAB36 (scFv)
scFv: EVQLVQSGGGVVQPGGSLRLSCAASGYDLSHYGLNWIRQAPGKGPEWVGWINTYTGEPTYAPDFTRRVTFSLDTSKSTAYLQLNSLRAEDTAVYYCAKYPYYYGRSHWYFDVWGQGTLVTVSSGGGGSGGGGSGGGGSDIVMTQSPSTLSASPGERATITCNASQSIGSYLAWYQQKPGQAPKVLIYGASNLASGVPSRFSGSRSGTDFTLTISSLQPEDFAVYYCQQYNSTPWTFGGGTKLEIK
notes: as for B1
B7: hAB16 (scFv)
scFv: EVQLVQSGGGVVQPGGSLRLSCAASGYTFTNYGMNWIRQAPGKGLEWVGWINTYTGEPTYAADFKRRVTFSLDTSKSTAYLQLNSLRAEDTAVYYCAKYPYYYGRSHWYFDVWGQGTLVTVSSGGGGSGGGGSGGGGSDIVMTQSPSTLSASPGERATITCNASQSIGSYLAWYQQKPGQAPKVLIYGASNLASGVPSRFSGSRSGTDFTLTISSLQPEDFAVYYCQQYNSTPWTFGGGTKLEIK
notes: as for B1
B8: hAB37 (scFv)
scFv: EVQLVQSGGGVVQPGGSLRLSCAASGYNFSHFGLNWLRQAPGKGLEWVGWINTYNGETTYAPDFKRRVTFSLDTSKSTAYLQLNSLRAEDTAVYYCAKYPYYYGRSHWYFDVWGQGTLVTVSSGGGGSGGGGSGGGGSDIVMTQSPSTLSASPGERATITCNASQSIGSYLAWYQQKPGQAPKVLIYGASNLASGVPSRFSGSRSGTDFTLTISSLQPEDFAVYYCQQYNSTPWTFGGGTKLEIK
notes: as for B1
B9: hAB7 (scFv)
scFv: EVQLVQSGGGVVQPGGSLRLSCAASGYTFTNYGMNWVRQAPGKGLEWVGWINTYTGEPTYAADFKRRFTFSLDTSKSTAYLQMNSLRAEDTAVYYCAKYPYYYGRSHWYFDVWGQGTLVTVSSGGGGSGGGGSGGGGSDIQMTQSPSSLSASVGDRVTITCSASQDISNYLNWYQQKPGKAPKVLIYFTSSLHSGVPSRFSGSGSGTDFTLTISSLQPEDFATYYCQQYSTVPWTFGQGTKVEIK
notes: as for B1
B10: hAB8 (scFv)
scFv: EVQLVQSGGGVVQPGGSLRLSCAASGYTFTNYGMNWIRQAPGKGLEWVGWINTYTGEPTYAADFKRRVTFSLDTSKSTAYLQLNSLRAEDTAVYYCAKYPYYYGRSHWYFDVWGQGTLVTVSSGGGGSGGGGSGGGGSDIQMTQSPSSLSASVGDRVTITCSASQDISNYLNWYQQKPGKAPKVLIYFTSSLHSGVPSRFSGSGSGTDFTLTISSLQPEDFATYYCQQYSTVPWTFGQGTKVEIK
notes: as for B1
B11: hAB5 (scFv)
scFv: EVQLVQSGGGVVQPGGTLRLTCAASGYTFTNYGMNWVRQAPGKGLEWVGWINTYTGEPTYAADFKRRVTFSLDTSKSTAYLQMNSLRAEDTAVYYCAKYPHYYGSSHWYFDVWGQGTLVTVSSGGGGSGGGGSGGGGSDIQMTQSPSSLSASVGDRVTITCSASQDISNYLNWYQQKPGKAPKVLIYFTSSLHSGVPSRFSGSGSGTDFTLTISSLQPEDFATYYCQQYSTVPWTFGQGTKVEIK
notes: as for B1
B12: hAB9 (scFv)
scFv: EVQLVQSGGGVVQPGGSLRLSCAASGYTFTNYGMNWVRQAPGKGLEWVGWINTYTGEPTYAADFKRRFTFSLDTSKSTAYLQMNSLRAEDTAVYYCAKYPYYYGRSHWYFDVWGQGTLVTVSSGGGGSGGGGSGGGGSDIQLTQSPSSLSASAGDRVTISCSASQDISNYLNWYQQKPGKAPQLLIYFTSSLHSGVPSRFSGSGSGTDFTLTISSLQPEDFATYYCQQYSTVPWTFGQGTKVEIK
notes: as for B1
B13: hAB12 (scFv)
scFv: EVQLVESGGGLVQPGGSLRLSCAASGYTFTNYGMNWVRQAPGKGLEWVGWINTYTGEPTYAADFKRRFTFSLDTSKSTAYLQMNSLRAEDTAVYYCAKYPYYYGRSHWYFDVWGQGTLVTVSSGGGGSGGGGSGGGGSDIQMTQSPSSLSASVGDRVTITCSASQDISNYLNWYQQKPGKAPKVLIYFTSSLHSGVPSRFSGSGSGTDFTLTISSLQPEDFATYYCQQYSTVPWTFGQGTKVEIK
notes: as for B1
B14: hAB11 (scFv)
scFv: EVQLVESGGGLVQPGGSLRLSCAASGYTFTNYGMNWVRQAPGKGLEWVGWINTYTGEPTYAADFKRRFTFSLDTSKSTAYLQMNSLRAEDTAVYYCAKYPHYYGRSHWYFDVWGQGTLVTVSSGGGGSGGGGSGGGGSDIQMTQSPSSLSASVGDRVTITCSASQDISNYLNWYQQKPGKAPKVLIYFTSSLHSGVPSRFSGSGSGTDFTLTISSLQPEDFATYYCQQYSTVPWTFGQGTKVEIK
notes: as for B1
B15: hAB10 (scFv)
scFv: EVQLVESGGGLVQPGGSLRLSCAASGYTFTNYGMNWVRQAPGKGLEWVGWINTYTGEPTYAADFKRRFTFSLDTSKSTAYLQMNSLRAEDTAVYYCAKYPYYYGTSHWYFDVWGQGTLVTVSSGGGGSGGGGSGGGGSDIQMTQSPSSLSASVGDRVTITCSASQDISNYLNWYQQKPGKAPKVLIYFTSSLHSGVPSRFSGSGSGTDFTLTISSLQPEDFATYYCQQYSTVPWTFGQGTKVEIK
notes: as for B1

The binders below were run against T1, purified recombinant human VEGF165 (human, UniProt P15692 27-191, glycosylated) (assay: SPR (BIAcore), purified scFv over VEGF immobilized on CM5 chip, 35 C).
T1 construct: mature; Bought from Calbiochem; also called VEGF protein (Calbiochem); homodimeric VEGF protein
Description: (§1) Antibody fragments in the format of single chain were expressed as described below and purified. The measurement was done by measuring the change of SPR units (y-axis) vs time (x-axis) when a purified antibody binds its antigen (VEGF) immobilized on the CM5 biochip at 35° C. Kd values were calculated by the […].
(§2) BIAcore Biosensor Assay was used to determine antibody affinity. VEGF protein (purchased from Calbiochem) was coupled to a CM-5 biosensor ship by amine coupling. After immobilization, CM-5 chips with 200 to 1000 response unites of VEGF were kept at 4° C. before use. All experiments were performed at 25° C. or 35° C. Each sample in PBS buffer was injected over VEGF surface at a flow rate of 20 ul/min using Biacore 1000 (Biacore AB, Sweden), and bound antibodies were removed from chip by 10 ul of glycine-HCl, PH 1.5 at the end of each cycle. Each sensorgram was recorded and normalized to a PBS base line.

T1 sequence (P15692 other isoform, or with tags, fused parts or gaps limits assumed): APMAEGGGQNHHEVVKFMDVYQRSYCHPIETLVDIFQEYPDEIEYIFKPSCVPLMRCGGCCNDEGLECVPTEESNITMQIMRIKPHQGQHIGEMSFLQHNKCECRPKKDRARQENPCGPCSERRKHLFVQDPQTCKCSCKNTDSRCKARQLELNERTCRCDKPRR

In order of rising Kd:
1. B3  0.7 nM
2. B6  0.7 nM
3. B8  0.8 nM
4. B5  0.9 nM
5. B9  1.1 nM
6. B10  1.1 nM
7. B7  1.6 nM
8. B4  1.8 nM
9. B2  3.6 nM
10. B1  3.7 nM

In order of falling “hAB1 Kd/Variant Kd” value:
1. B3  59.1
2. B6  59.1
3. B8  51.8
4. B5  46
5. B9  37.6
6. B10  37.6
7. B7  25.9
8. B4  23
9. B2  11.5
10. B1  11.2

In order of rising koff:
1. B9  9e-06 s⁻¹
2. B10  1.7e-05 s⁻¹
3. B6  3.7e-05 s⁻¹
4. B8  4.4e-05 s⁻¹
5. B7  4.7e-05 s⁻¹
6. B4  4.8e-05 s⁻¹
7. B5  4.8e-05 s⁻¹
8. B2  6.2e-05 s⁻¹
9. B3  6.2e-05 s⁻¹
10. B1  8.6e-05 s⁻¹

In order of rising kon:
1. B9  8500 M⁻¹ s⁻¹
2. B10  15800 M⁻¹ s⁻¹
3. B2  17100 M⁻¹ s⁻¹
4. B1  23400 M⁻¹ s⁻¹
5. B4  28400 M⁻¹ s⁻¹
6. B7  29300 M⁻¹ s⁻¹
7. B6  47500 M⁻¹ s⁻¹
8. B5  50000 M⁻¹ s⁻¹
9. B8  57300 M⁻¹ s⁻¹
10. B3  82800 M⁻¹ s⁻¹

Each binder was assayed against T1, purified recombinant human VEGF165 (assay: SPR (BIAcore), purified scFv over VEGF immobilized on CM5 chip, 25 C).
Description: as §1, with “25°” for “35°”
as §2

In order of rising Kd:
1. B13  1.5 nM
2. B15  2.2 nM
3. B12  4.9 nM
4. B14  5.4 nM
5. B11  5.9 nM

In order of rising “hAB1 Kd/Variant Kd” value:
1. B11  2.2
2. B14  2.6
3. B12  2.7
4. B15  6.3
5. B13  9.2

In order of rising koff:
1. B13  3e-06 s⁻¹
2. B15  3e-06 s⁻¹
3. B12  1.4e-05 s⁻¹
4. B11  7.2e-05 s⁻¹
5. B14  8.7e-05 s⁻¹

In order of falling kon:
1. B14  15900 M⁻¹ s⁻¹
2. B11  12200 M⁻¹ s⁻¹
3. B12  2900 M⁻¹ s⁻¹
4. B13  2300 M⁻¹ s⁻¹
5. B15  1100 M⁻¹ s⁻¹
